T1: Mcm4 (S. cerevisiae, UniProt P30665 1-933)
T1 construct: Mcm4, S. cerevisiae; Subunit as it stands in the DH of the cryo-EM structures; modelled from residue 155 in the DDK-engaged model; also called Mcm4 subunit; source: S. cerevisiae, overexpressed as Mcm2-7-Cdt1, purified; in the DNA-loaded double hexamer
T1 sequence: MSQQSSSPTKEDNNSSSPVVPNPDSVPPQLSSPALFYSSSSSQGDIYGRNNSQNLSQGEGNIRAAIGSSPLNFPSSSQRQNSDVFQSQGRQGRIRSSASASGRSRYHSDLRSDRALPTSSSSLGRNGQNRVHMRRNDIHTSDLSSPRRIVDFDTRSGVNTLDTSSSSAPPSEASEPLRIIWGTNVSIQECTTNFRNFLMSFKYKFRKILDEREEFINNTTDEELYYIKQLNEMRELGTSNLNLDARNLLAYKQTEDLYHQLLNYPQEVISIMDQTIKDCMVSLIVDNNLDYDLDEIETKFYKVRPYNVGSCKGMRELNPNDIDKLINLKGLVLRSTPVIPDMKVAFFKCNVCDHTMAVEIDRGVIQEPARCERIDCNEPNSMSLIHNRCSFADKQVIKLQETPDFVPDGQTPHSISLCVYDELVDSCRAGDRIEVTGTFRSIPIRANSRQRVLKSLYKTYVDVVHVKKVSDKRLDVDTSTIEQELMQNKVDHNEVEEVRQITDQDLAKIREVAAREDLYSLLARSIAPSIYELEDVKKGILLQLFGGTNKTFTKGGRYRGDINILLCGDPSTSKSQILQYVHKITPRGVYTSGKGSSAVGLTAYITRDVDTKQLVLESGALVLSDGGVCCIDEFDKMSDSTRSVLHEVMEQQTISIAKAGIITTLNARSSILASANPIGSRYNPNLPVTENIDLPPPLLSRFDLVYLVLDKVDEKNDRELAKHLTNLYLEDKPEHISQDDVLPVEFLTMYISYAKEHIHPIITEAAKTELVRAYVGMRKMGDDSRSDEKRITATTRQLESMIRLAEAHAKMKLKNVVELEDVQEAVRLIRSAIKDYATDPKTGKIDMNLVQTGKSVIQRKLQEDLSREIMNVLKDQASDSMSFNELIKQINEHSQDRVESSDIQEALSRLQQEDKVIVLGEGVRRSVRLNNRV

T2: Mcm2 (S. cerevisiae, UniProt P29469 1-868)
T2 construct: Mcm2, S. cerevisiae; Subunit as it stands in the DH of the cryo-EM structures; also called Mcm2 subunit; source: S. cerevisiae, overexpressed as Mcm2-7-Cdt1, purified; in the DNA-loaded double hexamer
T2 sequence: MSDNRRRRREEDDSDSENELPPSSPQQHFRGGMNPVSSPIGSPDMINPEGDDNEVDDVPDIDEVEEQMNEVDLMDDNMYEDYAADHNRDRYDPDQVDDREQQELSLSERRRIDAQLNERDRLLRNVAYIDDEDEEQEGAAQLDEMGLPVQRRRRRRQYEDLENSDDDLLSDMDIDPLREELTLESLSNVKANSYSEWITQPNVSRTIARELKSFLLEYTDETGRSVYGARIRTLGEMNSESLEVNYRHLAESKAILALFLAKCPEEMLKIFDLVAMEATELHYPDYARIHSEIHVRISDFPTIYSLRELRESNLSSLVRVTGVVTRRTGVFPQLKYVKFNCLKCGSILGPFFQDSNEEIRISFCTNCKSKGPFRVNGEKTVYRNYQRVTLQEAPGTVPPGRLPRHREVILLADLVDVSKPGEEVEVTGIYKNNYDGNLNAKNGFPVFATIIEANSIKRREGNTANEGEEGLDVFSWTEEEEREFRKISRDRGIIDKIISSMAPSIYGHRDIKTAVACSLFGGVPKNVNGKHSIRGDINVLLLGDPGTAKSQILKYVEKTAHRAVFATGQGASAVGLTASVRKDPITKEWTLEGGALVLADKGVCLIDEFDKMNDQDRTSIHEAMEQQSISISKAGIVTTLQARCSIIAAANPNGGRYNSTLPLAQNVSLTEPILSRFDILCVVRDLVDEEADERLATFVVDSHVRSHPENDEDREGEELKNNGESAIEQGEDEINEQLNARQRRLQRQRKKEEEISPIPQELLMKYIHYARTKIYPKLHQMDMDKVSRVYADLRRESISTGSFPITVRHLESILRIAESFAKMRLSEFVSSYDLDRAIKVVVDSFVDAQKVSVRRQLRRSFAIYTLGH

B1: Dbf4 (natural protein, S. cerevisiae)
chain: MVSPTKMIIRSPLKETDTNLKHNNGIAASTTAAGHLNVFSNDNNCNNNNTTESFPKKRSLERLELQQQQHLHEKKRARIERARSIEGAVQVSKGTGLKNVEPRVTPKELLEWQTNWKKIMKRDSRIYFDITDDVEMNTYNKSKMDKRRDLLKRGFLTLGAQITQFFDTTVTIVITRRSVENIYLLKDTDILSRAKKNYMKVWSYEKAARFLKNLDVDLDHLSKTKSASLAAPTLSNLLHNEKLYGPTDRDPRTKRDDIHYFKYPHVYLYDLWQTWAPIITLEWKPQELTNLDELPYPILKIGSFGRCPFIGDRNYDESSYKRVVKRYSRDKANKKYALQLRALFQYHADTLLNTSSVNDQTKNLIFIPHTCNDSTKSFKKWMQEKAKNFEKTELKKTDDSAVQDVRNEHADQTDEKNSILLNETETKEPPLKEEKENKQSIAEESNKYPQRKELAATPKLNHPVLATFARQETEEVPDDLCTLKTKSRQAFEIKASGAHQSNDVATSFGNGLGPTRASVMSKNMKSLSRLMVDRKLGVKQTNGNNKNYTATIATTAETSKENRHRLDFNALKKDEAPSKETGKDSAVHLETNRKPQNFPKVATKSVSADSKVHNDIKITTTESPTASKKSTSTNVTLHFNAQTAQTAQPVKKETVKNSGYCENCRVKYESLEQHIVSEKHLSFAENDLNFEAIDSLIENLRFQI
notes: Dbf4, S. cerevisiae; Subunit as it stands in DDK in the DH-DDK cryo-EM structure; also called Dbf4 subunit of DDK; CBP-Dbf4; source: S. cerevisiae, overexpressed with Cdc7, purified as DDK

Legend:
Assay in all cases: cryo-EM structure; DH loaded with ORC, Cdc6 and Mcm2-7-Cdt1 (96 nM each) on MH-capped ARS1 DNA (8 nM) in buffer B at 30 °C, then 289 nM DDK for 50 min before plunge-freezing; neither crosslinking nor nucleotide analogs
Conditions in all cases: both partners purified
[1] = molecular target: T3, Mcm3 (S. cerevisiae, UniProt P24279 1-971)
T3 construct: Mcm3, S. cerevisiae; also called Mcm3 subunit; source: S. cerevisiae, overexpressed as Mcm2-7-Cdt1, purified; in the DNA-loaded double hexamer
T3 sequence (P24279 whole entry): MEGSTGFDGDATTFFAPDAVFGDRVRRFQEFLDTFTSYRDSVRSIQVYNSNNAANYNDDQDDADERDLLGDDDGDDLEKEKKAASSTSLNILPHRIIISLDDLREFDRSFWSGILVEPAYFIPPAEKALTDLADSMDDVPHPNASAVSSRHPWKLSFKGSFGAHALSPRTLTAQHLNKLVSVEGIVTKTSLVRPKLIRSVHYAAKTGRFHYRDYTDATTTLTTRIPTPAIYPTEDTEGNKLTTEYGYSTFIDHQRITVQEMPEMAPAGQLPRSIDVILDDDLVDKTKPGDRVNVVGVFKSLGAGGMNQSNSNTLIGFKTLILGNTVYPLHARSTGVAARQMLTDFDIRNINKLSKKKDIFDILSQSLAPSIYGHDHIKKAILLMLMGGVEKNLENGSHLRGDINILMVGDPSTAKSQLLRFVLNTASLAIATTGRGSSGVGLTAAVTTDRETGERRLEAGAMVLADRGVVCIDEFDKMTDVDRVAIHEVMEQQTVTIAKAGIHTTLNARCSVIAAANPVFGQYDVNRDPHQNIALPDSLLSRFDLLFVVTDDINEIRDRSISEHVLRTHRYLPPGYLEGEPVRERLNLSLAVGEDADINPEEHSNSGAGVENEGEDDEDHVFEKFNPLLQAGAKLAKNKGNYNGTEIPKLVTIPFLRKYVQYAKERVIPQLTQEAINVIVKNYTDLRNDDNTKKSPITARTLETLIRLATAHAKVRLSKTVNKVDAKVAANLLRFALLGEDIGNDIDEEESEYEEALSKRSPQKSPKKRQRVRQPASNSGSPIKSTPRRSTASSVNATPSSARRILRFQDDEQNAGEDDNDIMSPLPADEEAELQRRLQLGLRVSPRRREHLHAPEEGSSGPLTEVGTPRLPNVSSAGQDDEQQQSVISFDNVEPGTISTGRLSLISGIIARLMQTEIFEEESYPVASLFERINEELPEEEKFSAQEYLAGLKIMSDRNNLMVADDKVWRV

[2] = molecular target: T1, Mcm4
[3] = molecular target: B1
[4] = molecular target: T2, Mcm2

binding result [1] | binding result [2] | binding result [3] | binding result [4] | Binder
binds | binds |  |  | Mcm7 (natural protein, S. cerevisiae, Mcm7, S. cerevisiae; also called Mcm7 subunit; source: S. cerevisiae, overexpressed as Mcm2-7-Cdt1, purified; in the DNA-loaded double hexamer) MSAALPSIQLPVDYNNLFNEITDFLVTFKQDTLSSDATRNENEDENLDAENIEQHLLEKGPKYMAMLQKVANRELNSVIIDLDDILQYQNEKFLQGTQADDLVSAIQQNANHFTELFCRAIDNNMPLPTKEIDYKDDVLDVILNQRRLRNERMLSDRTNEIRSENLMDTTMDPPSSMNDALREVVEDETELFPPNLTRRYFLYFKPLSQNCARRYRKKAISSKPLSVRQIKGDFLGQLITVRGIITRVSDVKPAVEVIAYTCDQCGYEVFQEVNSRTFTPLSECTSEECSQNQTKGQLFMSTRASKFSAFQECKIQELSQQVPVGHIPRSLNIHVNGTLVRSLSPGDIVDVTGIFLPAPYTGFKALKAGLLTETYLEAQFVRQHKKKFASFSLTSDVEERVMELITSGDVYNRLAKSIAPEIYGNLDVKKALLLLLVGGVDKRVGDGMKIRGDINVCLMGDPGVAKSQLLKAICKISPRGVYTTGKGSSGVGLTAAVMKDPVTDEMILEGGALVLADNGICCIDEFDKMDESDRTAIHEVMEQQTISISKAGINTTLNARTSILAAANPLYGRYNPRLSPLDNINLPAALLSRFDILFLMLDIPSRDDDEKLAEHVTYVHMHNKQPDLDFTPVEPSKMREYIAYAKTKRPVMSEAVNDYVVQAYIRLRQDSKREMDSKFSFGQATPRTLLGIIRLSQALAKLRLADMVDIDDVEEALRLVRVSKESLYQETNKSKEDESPTTKIFTIIKKMLQETGKNTLSYENIVKTVRLRGFTMLQLSNCIQEYSYLNVWHLINEGNTLKFVDDGTMDTDQEDSLVSTPKLAPQTTASANVSAQDSDIDLQDA
 | binds | binds |  | Cdc7 (enzyme, S. cerevisiae, Cdc7, S. cerevisiae; Subunit as it stands in DDK in the DH-DDK cryo-EM structure; also called Cdc7 catalytic subunit of DDK; source: S. cerevisiae, overexpressed with CBP-Dbf4, purified as DDK) MTSKTKNIDDIPPEIKEEMIQLYHDLPGIENEYKLIDKIGEGTFSSVYKAKDITGKITKKFASHFWNYGSNYVALKKIYVTSSPQRIYNELNLLYIMTGSSRVAPLCDAKRVRDQVIAVLPYYPHEEFRTFYRDLPIKGIKKYIWELLRALKFVHSKGIIHRDIKPTNFLFNLELGRGVLVDFGLAEAQMDYKSMISSQNDYDNYANTNHDGGYSMRNHEQFCPCIMRNQYSPNSHNQTPPMVTIQNGKVVHLNNVNGVDLTKGYPKNETRRIKRANRAGTRGFRAPEVLMKCGAQSTKIDIWSVGVILLSLLGRRFPMFQSLDDADSLLELCTIFGWKELRKCAALHGLGFEASGLIWDKPNGYSNGLKEFVYDLLNKECTIGTFPEYSVAFETFGFLQQELHDRMSIEPQLPDPKTNMDAVDAYELKKYQEEIWSDHYWCFQVLEQCFEMDPQKRSSAEDLLKTPFFNELNENTYLLDGESTDEDDVVSSSEADLLDKDVLLISE
 | binds |  | binds | B1
